In US20110189095A1 (University of Texas, published 2011):
Blank lines part the entries; values can stand above or below the binder they belong to. Bridge positions count the residues as written; N and C are the ends. Ends that are not written are not given here.

B2: β3 integrin of DU145 cells (receptor, human, UniProt P05106 27-788, looked up)
chain: GPNICTTRGVSSCQQCLAVSPMCAWCSDEALPLGSPRCDLKENLLKDNCAPESIEFPVSEARVLEDRPLSDKGSGDSSQVTQVSPQRIALRLRPDDSKNFSIQVRQVEDYPVDIYYLMDLSYSMKDDLWSIQNLGTKLATQMRKLTSNLRIGFGAFVDKPVSPYMYISPPEALENPCYDMKTTCLPMFGYKHVLTLTDQVTRFNEEVKKQSVSRNRDAPEGGFDAIMQATVCDEKIGWRNDASHLLVFTTDAKTHIALDGRLAGIVQPNDGQCHVGSDNHYSASTTMDYPSLGLMTEKLSQKNINLIFAVTENVVNLYQNYSELIPGTTVGVLSMDSSNVLQLIVDAYGKIRSKVELEVRDLPEELSLSFNATCLNNEVIPGLKSCMGLKIGDTVSFSIEAKVRGCPQEKEKSFTIKPVGFKDSLIVQVTFDCDCACQAQAEPNSHRCNNGNGTFECGVCRCGPGWLGSQCECSEEDYRPSQQDECSPREGQPVCSQRGECLCGQCVCHSSDFGKITGKYCECDDFSCVRYKGEMCSGHGQCSCGDCLCDSDWTGYYCNCTTRTDTCMSSNGLLCSGRGKCECGSCVCIQPGSYGDTCEKCPTCPDACTFKKECVECKKFDRGALHDENTCNRYCRDEIESVKELKDTGKDAVNCTYKNEDDCVVRFQYYEDSSGKSILYVVEEPECPKGPDILVVLLSVMGAILLIGLAALLIWKLLITIHDRKEFAKFEEERARAKWDTANNPLYKEATSTFTNITYRGT
notes: whole, on cells; Control of the co-immunoprecipitation; also called other integrins (anti-β3)
B4: recombinant His-tag CRKL (rCRKL) (other)
chain: MSSARFDSSDRSAWYMGPVSRQEAQTRLQGQRHGMFLVRDSSTCPGDYVLSVSENSRVSHYIINSLPNRRFKIGDQEFDHLPALLEFYKIHYLDTTTLIEPAPRYPSPPMGSVSAPNLPTAEDNLEYVRTLYDFPGNDAEDLPFKKGEILVIIEKPEEQWWSARNKDGRVGMIPVPYVEKLVRSSPHGKHGNRNSNSYGIPEPAHAYAQPQTTTPLPAVSGSPGAAITPLPSTQNGPVFAKAIQKRVPCAYDKTALALEVGDIVKVTRMNINGQWEGEVNGRKGLFPFTHVKIFDPQNPDENE
notes: Open reading frame of full-length CRKL cDNA cloned in pET28a, expressed in BL21; also called recombinant CRKL; rCKRL protein; not shown: His-tag from pET28a vector
B6: IL11 receptor of DU145 cells (receptor, human, UniProt Q14626 23-422, looked up)
chain: SSPCPQAWGPPGVQYGQPGRSVKLCCPGVTAGDPVSWFRDGEPKLLQGPDSGLGHELVLAQADSTDEGTYICQTLDGALGGTVTLQLGYPPARPVVSCQAADYENFSCTWSPSQISGLPTRYLTSYRKKTVLGADSQRRSPSTGPWPCPQDPLGAARCVVHGAEFWSQYRINVTEVNPLGASTRLLDVSLQSILRPDPPQGLRVESVPGYPRRLRASWTYPASWPCQPHFLLKFRLQYRPAQHPAWSTVEPAGLEEVITDAVAGLPHAVRVSARDFLDAGTWSTWSPEAWGTPSTGTIPKEIPAWGQLHTQPEVEPQVDSPAPPRPSLQPHPRLLDHRDSVEQVAVLASLGILSFLGLVAGALALGLWLRLRRGGKDGSPKPGFLASVIPVDRRPGAPNL
notes: whole, on cells; Unrelated transmembrane receptor, control of the co-immunoprecipitation

Key:
[1] = target: B4; assay: ELISA, His-tag protein on coated synthetic peptide
Description: (§1) Synthetic tumor-homing peptide ([…]; SEQ ID NO:1) or PSI-derived peptide ([…]; SEQ ID NO:23) were coated on microtiter plates followed by blocking, and washing. The following recombinant His-tag proteins were added to the coated plates: rCRKL, rCRKL-SH2 domain, rCRKL-SH3 (N) domain, and rCRKL-SH3 (C) domain. An unrelated control protein (α2-Heremans-Schmid glycoprotein; AHSG) served as a negative control. The mixtures were incubated, washed, and labeled with the appropriate antibodies. Secondary antibodies conjugated to horse-radish peroxidase (HRP) were added followed by adding TMB substrate (Calbiochem), and analyzed by an automated ELISA reader (Bio-Tek). To determine the inhibitory activity of the tumor-homing peptide, the PSI-derived peptide, or the phage clone displaying the corresponding tumor-homing peptide were incubated with the rCRKL-SH3 (C) domain. Unrelated cyclic peptide sequences and insertless phage (fd-tet) served as negative controls. The admixtures were incubated and added to wells coated with the tumor-homing peptide. After incubation, the wells were washed, labeled with the appropriate antibodies, and processed as above.

[2] = target: T1, β1 integrin of DU145 cells (membrane fraction / cell surface) (human, UniProt P05556 21-798); assay: reciprocal co-immunoprecipitation, DU145 membrane fractions
T1 construct: Native β1 chain of human DU145 cells
T1 sequence (P05556 21-798 limits assumed): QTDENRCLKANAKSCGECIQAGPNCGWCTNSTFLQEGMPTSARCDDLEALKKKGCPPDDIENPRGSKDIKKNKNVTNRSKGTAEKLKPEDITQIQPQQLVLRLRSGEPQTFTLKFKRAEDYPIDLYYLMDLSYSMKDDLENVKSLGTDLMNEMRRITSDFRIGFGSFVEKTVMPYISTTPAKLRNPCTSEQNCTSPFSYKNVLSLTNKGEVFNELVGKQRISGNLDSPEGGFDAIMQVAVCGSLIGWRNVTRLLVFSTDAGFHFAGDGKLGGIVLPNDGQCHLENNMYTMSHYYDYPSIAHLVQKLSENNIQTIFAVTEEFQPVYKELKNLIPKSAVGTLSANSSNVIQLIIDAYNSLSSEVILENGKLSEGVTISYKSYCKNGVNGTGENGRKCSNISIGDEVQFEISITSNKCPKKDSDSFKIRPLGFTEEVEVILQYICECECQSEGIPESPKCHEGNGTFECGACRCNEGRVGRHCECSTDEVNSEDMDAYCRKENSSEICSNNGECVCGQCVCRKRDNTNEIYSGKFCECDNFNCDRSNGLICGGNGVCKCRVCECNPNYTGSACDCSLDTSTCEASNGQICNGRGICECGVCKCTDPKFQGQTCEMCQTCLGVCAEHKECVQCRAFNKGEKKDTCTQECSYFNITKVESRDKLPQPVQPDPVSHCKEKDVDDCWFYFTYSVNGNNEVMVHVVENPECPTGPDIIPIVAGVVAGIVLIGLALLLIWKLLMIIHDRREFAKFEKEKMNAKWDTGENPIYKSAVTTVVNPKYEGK

[3] = target: B6; assay: as above
[4] = target: B2; assay: as above
[5] = target: T2, β5 integrin of DU145 cells (human, UniProt P18084 24-799); assay: as above
T2 construct: whole, on cells; Control of the co-immunoprecipitation; also called other integrins (anti-β5)
T2 sequence (P18084 24-799): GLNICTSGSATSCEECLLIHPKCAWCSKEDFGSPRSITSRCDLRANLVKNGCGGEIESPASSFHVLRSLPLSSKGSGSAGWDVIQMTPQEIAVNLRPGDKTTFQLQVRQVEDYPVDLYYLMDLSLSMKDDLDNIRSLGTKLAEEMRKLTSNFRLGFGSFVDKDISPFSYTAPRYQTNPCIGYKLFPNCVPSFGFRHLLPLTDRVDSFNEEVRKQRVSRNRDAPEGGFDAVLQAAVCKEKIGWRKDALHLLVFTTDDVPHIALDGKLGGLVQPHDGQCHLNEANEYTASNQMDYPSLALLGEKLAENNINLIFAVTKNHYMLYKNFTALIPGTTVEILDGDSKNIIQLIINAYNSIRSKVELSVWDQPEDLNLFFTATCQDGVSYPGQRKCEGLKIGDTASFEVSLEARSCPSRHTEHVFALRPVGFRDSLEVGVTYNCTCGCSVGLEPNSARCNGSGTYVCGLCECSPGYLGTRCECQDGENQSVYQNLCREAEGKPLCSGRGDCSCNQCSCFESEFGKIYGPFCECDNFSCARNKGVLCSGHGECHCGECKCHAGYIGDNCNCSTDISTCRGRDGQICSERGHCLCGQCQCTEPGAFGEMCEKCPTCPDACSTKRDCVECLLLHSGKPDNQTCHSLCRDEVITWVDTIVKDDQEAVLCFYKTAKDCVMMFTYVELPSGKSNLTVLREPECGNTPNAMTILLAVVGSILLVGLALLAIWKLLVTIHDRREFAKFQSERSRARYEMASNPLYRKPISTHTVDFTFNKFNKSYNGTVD

[6] = target: T3, αvβ3 integrin (Chemicon) (UniProt P06756 31-1048; P05106 27-788); assay: CRKL on wells coated with integrin at 1 µg/well, anti-CRKL detection (FIG. 5)
T3 construct: Bought protein coated at 1 µg/well; also called control integrin
T3 sequence (P06756 31-1048, one chain of several): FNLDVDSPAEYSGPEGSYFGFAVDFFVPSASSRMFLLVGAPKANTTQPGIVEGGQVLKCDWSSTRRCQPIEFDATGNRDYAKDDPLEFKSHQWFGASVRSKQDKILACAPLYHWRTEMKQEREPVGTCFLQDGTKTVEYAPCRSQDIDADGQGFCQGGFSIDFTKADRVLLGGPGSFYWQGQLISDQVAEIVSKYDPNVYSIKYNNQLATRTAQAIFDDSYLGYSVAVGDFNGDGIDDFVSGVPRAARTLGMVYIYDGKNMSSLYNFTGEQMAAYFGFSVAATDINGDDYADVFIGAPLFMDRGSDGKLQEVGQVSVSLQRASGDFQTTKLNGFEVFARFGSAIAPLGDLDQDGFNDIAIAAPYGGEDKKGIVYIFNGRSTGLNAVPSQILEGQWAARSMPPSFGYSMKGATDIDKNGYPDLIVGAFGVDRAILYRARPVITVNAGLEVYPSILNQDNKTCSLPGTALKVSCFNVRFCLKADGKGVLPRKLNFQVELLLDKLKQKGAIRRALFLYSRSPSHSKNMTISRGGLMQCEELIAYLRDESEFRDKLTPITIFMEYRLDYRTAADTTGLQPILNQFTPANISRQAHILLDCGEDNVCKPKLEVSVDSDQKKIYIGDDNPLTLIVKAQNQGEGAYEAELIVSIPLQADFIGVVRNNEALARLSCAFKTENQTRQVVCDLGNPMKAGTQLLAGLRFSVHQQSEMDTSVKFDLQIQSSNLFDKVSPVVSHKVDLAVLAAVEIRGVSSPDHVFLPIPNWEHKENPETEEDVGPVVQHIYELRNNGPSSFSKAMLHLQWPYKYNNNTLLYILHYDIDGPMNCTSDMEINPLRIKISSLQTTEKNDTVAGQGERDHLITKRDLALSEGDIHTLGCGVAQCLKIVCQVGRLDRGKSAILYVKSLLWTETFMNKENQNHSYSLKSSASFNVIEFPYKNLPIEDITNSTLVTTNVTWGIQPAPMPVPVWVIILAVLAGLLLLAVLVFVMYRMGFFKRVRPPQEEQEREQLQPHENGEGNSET
Description: (§2) Phage binding assays on purified proteins were carried out as described (Giordano et al. 2001). Recombinant proteins were coated on microtiter wells as previous described (Cardo-Vila et al., 2003; Smith and Scott, 1993). Briefly, proteins were immobilized on microtiter wells overnight at 4° C. 50 μl of 1 μg/ml in PBS. Wells were washed twice with PBS, blocked with PBS containing 3% BSA for 2 hours at room temperature, and incubated with 10⁹ T.U. wild-type tumor-homing phage ([…]; SEQ ID NO:1), scrambled phage ([…] (SEQ ID NO:26), […] (SEQ ID NO:27), […] (SEQ ID NO:29), […] (SEQ ID NO:30)), mutant phage ([…] (SEQ ID NO:25), […] (SEQ ID NO:28)), PSI-derived cyclic phage ([…]; SEQ ID NO:23) or fd-tet phage in 50 μl of PBS containing 1.5% BSA. After 1 hour at room temperature, wells were washed ten times with PBS and phage were recovered by bacterial infection. ELISA with polyclonal anti-CKRL confirmed the presence and concentration of the CKRL recombinant proteins on the wells. To test the binding of the tumor-homing phage to SH3 containing proteins, microtiter-wells were coated at 4° C. overnight with 250 μg/ml of recombinant gst-SH3 domains (CKRL-D1, CKRL-D2, grb2-D1, grb2-D2, Lyn, src; Pronomics), rCKRL protein, and negative controls gst or BSA. […] After 3 hours, binding of CKRL to integrins was detected by using an anti-CKRL antibody followed by an HRP-conjugated anti-rabbit IgG. […]

[7] = target: T4, αvβ5 integrin (Chemicon) (UniProt P06756 31-1048; P18084 24-799); assay: as above
T4 construct: Bought protein coated at 1 µg/well; also called control integrin
T4 sequence (P06756 31-1048, chain 1 of 2): as the sequence (P06756 31-1048, one chain of several) above
T4 sequence (P18084 24-799, chain 2 of 2): as the sequence (P18084 24-799) above
Description: as §2

[8] = target: B4; assay: ELISA, His-tag protein on coated synthetic peptide (FIG. 3A)
Description: as §1

- binding result [1]: binds
B1: synthetic PSI-derived peptide NSTFLQEGMPTSA (SEQ ID NO:23) (peptide)
peptide: NSTFLQEGMPTSA
notes: also called β1 integrin PSI-derived peptide

- binding result [3]: no binding
- binding result [2]: binds
- binding result [4]: no binding
- binding result [5]: no binding
B3: CRKL of DU145 cells (cell extract, membrane fraction, cell surface or serum-free condition medium) (other)
chain: MSSARFDSSDRSAWYMGPVSRQEAQTRLQGQRHGMFLVRDSSTCPGDYVLSVSENSRVSHYIINSLPNRRFKIGDQEFDHLPALLEFYKIHYLDTTTLIEPAPRYPSPPMGSVSAPNLPTAEDNLEYVRTLYDFPGNDAEDLPFKKGEILVIIEKPEEQWWSARNKDGRVGMIPVPYVEKLVRSSPHGKHGNRNSNSYGIPEPAHAYAQPQTTTPLPAVSGSPGAAITPLPSTQNGPVFAKAIQKRVPCAYDKTALALEVGDIVKVTRMNINGQWEGEVNGRKGLFPFTHVKIFDPQNPDENE
notes: Native protein from human DU145 prostate cancer cells; also called secreted CRKL; extracellular CRKL

- binding result [8]: binds
B5: synthetic tumor-homing peptide YRCTLNSPFFWEDMTHECHA (SEQ ID NO:1) (peptide)
peptide: YRCTLNSPFFWEDMTHECHA
modifications: disulfide 3-18 (inferred)
notes: also called PSI domain-mimic peptide

More lines, now with the values behind:

Binder: B2
- binding result [2]: no binding

Binder: B4
- binding result [6]: no binding
- binding result [7]: no binding

Binder: B6
- binding result [2]: no binding
